Measurements: US11497796B2, “Agents directed against a cis RGMa/neogenin interaction or lipid rafts and use of the same in methods of treatment” (UNIVERSITY HEALTH NETWORK, priority 2013, dated 2022)

T1: 4Ig-domain of Neogenin (Gallus gallus, UniProt Q90610)
T1 construct: made in house
T1 sequence (Q90610 1-383): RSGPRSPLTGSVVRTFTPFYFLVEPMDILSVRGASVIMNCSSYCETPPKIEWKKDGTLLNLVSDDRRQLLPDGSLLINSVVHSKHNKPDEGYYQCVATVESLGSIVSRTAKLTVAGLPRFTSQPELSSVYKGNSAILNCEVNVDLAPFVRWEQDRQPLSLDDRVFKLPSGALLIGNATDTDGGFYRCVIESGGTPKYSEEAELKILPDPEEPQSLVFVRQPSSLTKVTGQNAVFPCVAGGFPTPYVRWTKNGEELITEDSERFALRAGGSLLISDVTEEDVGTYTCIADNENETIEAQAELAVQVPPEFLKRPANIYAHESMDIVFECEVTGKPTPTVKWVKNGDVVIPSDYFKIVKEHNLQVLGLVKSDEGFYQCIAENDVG

B1: 4Ig: four immunoglobulin-like domains of Neogenin, amino acids 1 to 383 of Accession No. AAC59662 (SEQ ID NO:1) (protein, listed as Gallus gallus)
chain: RSGPRSPLTGSVVRTFTPFYFLVEPMDILSVRGASVIMNCSSYCETPPKIEWKKDGTLLNLVSDDRRQLLPDGSLLINSVVHSKHNKPDEGYYQCVATVESLGSIVSRTAKLTVAGLPRFTSQPELSSVYKGNSAILNCEVNVDLAPFVRWEQDRQPLSLDDRVFKLPSGALLIGNATDTDGGFYRCVIESGGTPKYSEEAELKILPDPEEPQSLVFVRQPSSLTKVTGQNAVFPCVAGGFPTPYVRWTKNGEELITEDSERFALRAGGSLLISDVTEEDVGTYTCIADNENETIEAQAELAVQVPPEFLKRPANIYAHESMDIVFECEVTGKPTPTVKWVKNGDVVIPSDYFKIVKEHNLQVLGLVKSDEGFYQCIAENDVGNAQAGAQLIILDLDVAIPTLPPTSLTSATNDHLAPATTGPLPTAPRDVVATLVSTRFIRLTWRTPVSDPQGDNLTYSIFYTKEGINRERVENTSRPGETQVMIQNLMPETVYVFRVVAQNKHGHGESSAPLKVATQPEVQLPGPAPNIRAYAGSPTSVTVTWETPLSGNGEIQNYKLYYMEKGQDSEQDVDVAGLSYTITGLKKYTEYSFRVVAYNKHGPGVSTQDVVVRTLSDVPSAAPQNLTLEARNSKSIMLHWQPPPAGTHSGQITGYKIRYRKVSRKSDVTESVGGTQLFQLIEGLERGTEYNFRIAAMTVNGTGPATDWVSAETFESDLDESRVPEVPSSLHVRPLVTSIVVSWTPPENQNIVVRGYAIGYGIGSPHAQTIKVDYKQRYYTIENLDPSSHYVITLKAFNNVGEGIPLYESAVTRPHSDTSEVDLFVINAPYTPVPDPSPMMPPVGVQASILSHDTIRITWADNSLPKNQKITDARYYTVRWKTNIPANTKYKTANATTLSYLVTGLKPNTLYEFSVMVTKGRRSSTWSMTAHGTTFELVPTSPPKDVTVVSKEGKPRTIIVNWQPPSEANGKITGYIIYYSTDVNAEIHDWVIEPVVGNRLTHQIQELTLDTPYYFKIQARNSKGMGPMSEAVQFRTPKAESSDKMPNDQASGSAGKGSRPVDVGPDYKPPLSGSNSPHGSPTSPLDSNMLLVIIVSVGVITIVIVVIVAVFCTRRTTSHQKKKRAACKSVNGSHKYKGNSKDVKPPDLWIHHERLELKPIDKSPDPNPIMTDTPIPRNSQDITPVDNSMDSNIHQRRNSYRGHESEDSMSTLAGRRGMRPKMMMPFDSQPPQPVISAHPIHSLDNPHHHFHSGSLASPTRSYLHHQVSPWPVGTSMSHSDRANSTESVRNTPSSDTMPASSSQPCADHQDPDSSSGAYLGSAQEEDAAQSLPTAHVRPSHPLKSFAVPAVPAAGSAYDPTLPSTPLLTQQAPSHPVHSVKTASIGTLGRTRPPMPVVVPSAPDVQETTRMLEDSESSYEPDELTKEMAHLEGLMKDLNAITTA
modifications: Neogenin - Accession No. AAC59662

Columns and labels:
[1] = target: T1, 4Ig-domain of Neogenin; test: ELISA / AP binding assay of RGMa peptides to Neogenin domains; conditions: ELISA, Neogenin domains fused to AP
Source text: Specifically, the 4Ig-domain and 6FNIII-domain of Neogenin were each fused to alkaline phosphatase (AP). The 4Ig-domain and 6FNIII-domain of Neogenin were found in the extracellular portion of Neogenin. Accession No. AAC59662 (SEQ ID NO:1) was the amino acid sequence of Neogenin. The 4Ig-domain was amino acids 1 to 383 of Accession No. AAC59662 (SEQ ID NO:1). The 6FNIII-domain was amino acids 429 to 1036 of Accession No. AAC59662 (SEQ ID NO:1).
The binding of these fusions to various RGMa peptides were analyzed in an ELISA assay (FIG. 2A).
To determine if distinct N-terminal regions of RGMa bound the 4Ig- and 6FNIII-domains of Neogenin, peptides were generated that spanned the N-terminal region of RGMa. The amino acid sequence of RGMa was Accession No. NP_989868.1 (SEQ ID NO:6). These peptides were a peptide spanning amino acids 28-73 of RGMa (also referred to herein as “N-Raft”) and a peptide spanning amino acids 77-113 of RGMa (also referred to herein as “N-inh”). […] In a complementary experiment, in which the N-Raft and N-inh peptides of RGMa were fused with AP instead of the 4Ig- and 6FNIII-domains of Neogenin, N-Raft bound to the 4Ig-domain and not the 6FNIII-domain while N-inh bound to the 6FNIII-domain and not the 4Ig-domain (FIG. 9). Additionally, N-inh and N-Raft coated beads pulled down 6FNIII-domain and 4Ig-domain, respectively, which was consistent with the ELISA results described above (FIG. 2B).
The assay was conducted in a 96-well microtiter plate (Corning Incorporated). The wells were coated with 100 μl (10 μg/mL) of Poly-L-Lysine at 4° C. overnight. Wells were then washed three times with 100 μl of PB ST (+0.02% Tween).
50 μl (2.5 μg/mL) of His-tagged: Full-length Neogenin; the 4Ig-domain of Neogenin; and 6FNIII-domain of Neogenin were coated onto each well for 1 hour at 37° C. Following three washes of 100 μl PBST, each well was then blocked with 300 μl of 3% BSA in PBST for 1 hour at 37° C.
50 μl (1.0 μg/mL) AP-tagged: N-RGMa (28-73); N-RGMa (28-54); N-RGMa (40-62); N-RGMa (54-73); N-RGMa (54-62) in 1% BSA+PBST was then added to each well and incubated at 37° C. for 1 hour. Each well was washed thoroughly three times with 100 μl PBST followed by subsequent equilibration of each well with Alkaline Phosphatase (AP) developing buffer (100 mM NaHCO3, 1 mM MgCl2). The reaction was developed using AP developing buffer supplemented with, p-nitrophenyl phosphate (pNPP) (Sigma-Aldrich) and allowed to develop until color development. The reaction was stopped with the addition of 50 μl (0.1M) NaOH. The absorbance of each reaction was measured using a microplate autoreader (BIO-TEK Instruments Inc.) at 405 nanometers (nm) wavelength.

[2] = tested on: retinal whole mounts; test: Oxygen Glucose Deprivation (OGD) in retinal whole mounts, PI staining; type: cell-based; conditions: OGD in presence of 4Ig
Procedure: Specifically, retinal whole mounts were subjected to OGD for 1 hour. After ischemia, whole mounts were incubated for 24 hours and dead cells were identified using propidium iodide (PI) staining.
To determine whether Neogenin required lipid raft association to induce cell death, OGD was performed on retinal whole mounts in the presence of 4Ig, which as described above, prevented Neogenin localization into lipid rafts.

| Molecule | interaction with the 4Ig-domain of Neogenin [1] | reduction of the number of dead neurons compared to controls [2] |
| --- | --- | --- |
| N-Raft: peptide spanning amino acids 28-73 of RGMa (SEQ ID NO:2) (SPCKILKCNSEFWAATSGSHHLGAEETPEFCTALRAYAHCTRRTAR; N-Raft - amino acids 28-73 of RGMa) | interacted |  |
| B1 |  | two-fold |
